According to US20200283521A1 (GRANULAR THERAPEUTICS, published 2020):

Key:
Experiment in all cases: direct ELISA on coated protein, IgG1
[1] = biological target: T1, hLTBR-Fc (human, UniProt P36941)
T1 construct: Fc fusion; member of the panel m9

[2] = biological target: T2, hDR6-Fc (human, UniProt O75509)
T2 construct: Fc fusion; member of the panel m9
T2 sequence (looked up): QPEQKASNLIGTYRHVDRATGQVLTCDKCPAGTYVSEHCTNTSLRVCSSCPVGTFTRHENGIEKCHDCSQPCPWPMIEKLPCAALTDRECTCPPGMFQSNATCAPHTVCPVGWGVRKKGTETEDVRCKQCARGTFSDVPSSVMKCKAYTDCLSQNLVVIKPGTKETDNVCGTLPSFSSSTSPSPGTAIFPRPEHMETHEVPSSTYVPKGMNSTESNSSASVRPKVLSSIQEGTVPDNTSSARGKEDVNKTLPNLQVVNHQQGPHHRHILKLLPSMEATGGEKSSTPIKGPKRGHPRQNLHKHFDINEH

[3] = biological target: T3, hVCAM-1 (human, UniProt P19320)
T3 construct: purified recombinant protein; member of the panel m9
T3 sequence (looked up): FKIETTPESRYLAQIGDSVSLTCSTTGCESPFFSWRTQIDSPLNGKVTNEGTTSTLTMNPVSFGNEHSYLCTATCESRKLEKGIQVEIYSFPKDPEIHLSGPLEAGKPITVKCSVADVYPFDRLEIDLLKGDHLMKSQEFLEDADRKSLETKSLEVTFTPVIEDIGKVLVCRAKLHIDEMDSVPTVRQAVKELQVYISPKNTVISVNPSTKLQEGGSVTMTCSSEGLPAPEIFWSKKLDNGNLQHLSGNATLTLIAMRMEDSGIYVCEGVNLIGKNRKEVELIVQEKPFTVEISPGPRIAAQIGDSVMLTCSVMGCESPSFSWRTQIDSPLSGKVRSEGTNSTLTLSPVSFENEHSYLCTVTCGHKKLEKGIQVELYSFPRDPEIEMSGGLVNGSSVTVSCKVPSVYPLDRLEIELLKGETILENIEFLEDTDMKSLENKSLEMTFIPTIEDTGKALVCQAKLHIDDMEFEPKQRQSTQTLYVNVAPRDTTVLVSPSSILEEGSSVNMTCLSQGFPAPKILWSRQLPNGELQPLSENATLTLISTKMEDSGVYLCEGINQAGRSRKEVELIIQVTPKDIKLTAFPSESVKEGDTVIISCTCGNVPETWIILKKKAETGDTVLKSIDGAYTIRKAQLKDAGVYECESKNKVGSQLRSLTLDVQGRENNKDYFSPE

[4] = biological target: T4, hEpCAM-Fc (human, UniProt P16422)
T4 construct: Fc fusion; member of the panel m9
T4 sequence (looked up): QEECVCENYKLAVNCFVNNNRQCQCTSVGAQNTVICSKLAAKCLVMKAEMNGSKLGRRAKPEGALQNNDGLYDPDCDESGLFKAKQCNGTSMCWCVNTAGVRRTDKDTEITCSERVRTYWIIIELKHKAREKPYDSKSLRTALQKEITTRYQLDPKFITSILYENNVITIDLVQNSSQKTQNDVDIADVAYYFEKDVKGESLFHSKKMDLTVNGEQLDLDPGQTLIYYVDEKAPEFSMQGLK

[5] = biological target: T5, hDR3-Fc (human, UniProt Q93038)
T5 construct: Fc fusion; member of the panel m9
T5 sequence (looked up): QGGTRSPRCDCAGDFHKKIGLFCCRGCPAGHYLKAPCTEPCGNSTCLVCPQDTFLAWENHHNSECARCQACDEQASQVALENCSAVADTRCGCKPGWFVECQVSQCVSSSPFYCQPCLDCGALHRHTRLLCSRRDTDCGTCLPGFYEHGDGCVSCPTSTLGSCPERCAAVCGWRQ

[6] = biological target: T6, h4-1BB-Fc
T6 construct: member of the panel m9

[7] = biological target: T7, hBAFFR-Fc (human, UniProt Q96RJ3)
T7 construct: Fc fusion; member of the panel m9

[8] = biological target: T8, hVCAM-Fc
T8 construct: member of the panel m9
T8 chain: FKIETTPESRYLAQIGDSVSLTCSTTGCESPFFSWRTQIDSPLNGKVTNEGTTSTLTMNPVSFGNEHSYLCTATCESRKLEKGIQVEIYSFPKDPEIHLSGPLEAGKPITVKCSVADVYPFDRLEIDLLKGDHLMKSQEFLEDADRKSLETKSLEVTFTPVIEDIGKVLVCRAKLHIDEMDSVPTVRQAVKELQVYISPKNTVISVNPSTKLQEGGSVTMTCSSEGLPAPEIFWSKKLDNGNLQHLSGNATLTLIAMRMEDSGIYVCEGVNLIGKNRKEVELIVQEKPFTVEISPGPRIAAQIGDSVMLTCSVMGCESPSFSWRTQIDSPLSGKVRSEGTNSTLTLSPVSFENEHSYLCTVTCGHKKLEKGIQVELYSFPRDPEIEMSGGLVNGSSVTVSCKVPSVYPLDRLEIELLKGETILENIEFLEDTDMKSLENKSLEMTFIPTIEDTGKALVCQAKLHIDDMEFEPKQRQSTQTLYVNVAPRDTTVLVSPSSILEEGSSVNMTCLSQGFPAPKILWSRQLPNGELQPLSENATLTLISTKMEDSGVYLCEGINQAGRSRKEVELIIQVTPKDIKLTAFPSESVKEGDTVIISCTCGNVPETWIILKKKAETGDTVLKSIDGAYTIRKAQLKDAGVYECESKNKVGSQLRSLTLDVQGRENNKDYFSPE

[9] = biological target: T9, hCD4 (human, UniProt P01730)
T9 construct: purified recombinant protein; member of the panel m9

[10] = biological target: T10, hOX40-Fc
T10 construct: member of the panel m9
T10 chain: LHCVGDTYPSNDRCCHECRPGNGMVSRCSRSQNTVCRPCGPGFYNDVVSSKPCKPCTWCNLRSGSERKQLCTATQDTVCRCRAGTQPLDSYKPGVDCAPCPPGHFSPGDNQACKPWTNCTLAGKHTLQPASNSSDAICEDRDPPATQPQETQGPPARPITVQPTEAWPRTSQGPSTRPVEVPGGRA

[11] = biological target: T11, hICAM-1-Fc (human, UniProt P05362)
T11 construct: Fc fusion; member of the panel m9

Measured: binding result

T1 sequence (P36941 28-227 limits assumed): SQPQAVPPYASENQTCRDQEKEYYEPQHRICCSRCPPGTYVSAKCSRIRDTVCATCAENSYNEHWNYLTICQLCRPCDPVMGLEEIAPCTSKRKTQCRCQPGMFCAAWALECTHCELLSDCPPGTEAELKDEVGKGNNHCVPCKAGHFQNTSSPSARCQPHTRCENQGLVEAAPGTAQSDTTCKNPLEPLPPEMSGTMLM
T6 sequence (chain, as listed by the source limits assumed): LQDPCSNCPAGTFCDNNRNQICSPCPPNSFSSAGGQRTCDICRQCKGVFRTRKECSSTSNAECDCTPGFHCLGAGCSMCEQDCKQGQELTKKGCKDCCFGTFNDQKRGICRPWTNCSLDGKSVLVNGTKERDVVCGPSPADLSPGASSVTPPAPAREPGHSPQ
T7 sequence (Q96RJ3 7-71 limits assumed): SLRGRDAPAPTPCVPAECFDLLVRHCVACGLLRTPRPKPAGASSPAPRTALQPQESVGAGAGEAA
T11 sequence (P05362 28-480 limits assumed): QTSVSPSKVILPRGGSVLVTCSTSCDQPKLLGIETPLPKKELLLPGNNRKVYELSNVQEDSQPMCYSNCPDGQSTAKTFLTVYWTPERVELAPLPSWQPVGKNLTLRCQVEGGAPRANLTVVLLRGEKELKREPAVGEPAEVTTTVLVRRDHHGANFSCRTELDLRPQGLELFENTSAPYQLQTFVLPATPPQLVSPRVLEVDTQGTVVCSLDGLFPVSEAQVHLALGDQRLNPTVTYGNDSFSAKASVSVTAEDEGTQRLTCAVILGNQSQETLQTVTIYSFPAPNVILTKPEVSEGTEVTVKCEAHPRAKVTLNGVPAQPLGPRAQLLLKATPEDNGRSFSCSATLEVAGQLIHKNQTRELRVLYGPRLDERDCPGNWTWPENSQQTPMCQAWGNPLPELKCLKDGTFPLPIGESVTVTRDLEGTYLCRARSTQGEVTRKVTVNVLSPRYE

B1: MH1, human IgG1 (antibody, V domains shown)
VH: QVQLVQSGAEVKKPGASVKVSCKASGYTFTDYYMNWVRQAPGQGLEWMGRIYPGSGNTYYAQKFQGRVTMTRDTSTSTVYMELSSLRSEDTAVYYCARGVYYYDYWGQGTLVTVSS
VL: DIQMTQSPSSLSASVGDRVTITCRASQGIRTNLAWFQQKPGKAPKSLIYAASSLQSGVPSRFSGSGSGTDFTLTISSLQPEDFATYYCQQYNSYPRTFGGGTKVEIK
notes: IgG1; also called IgG1-MH1
no binding (tested: 1 µg/ml): [1] | [2] | [3] | [4] | [5] | [6] | [7] | [8] | [9] | [10] | [11]
